Source: patent US20180362766A1, “Fluorogenic pH-Sensitive Dyes and Their Methods of Use” (Life Technologies Corporation, priority 2012, published 2018)

Tested on: A 431 cells
Assay: Live cell internalization (endocytosis) of dye-labeled EGF, fluorescence imaging
Type: cell-based
Procedure: A 431 cells were grown in complete medium on 35 mm poly-D-lysine coated glass bottom culture dishes from MatTek. On the day of the assay, cells were rinsed once with LCIS +1% BSA (Live Cell imaging solution, Cat# A14291DJ) and placed at 37° C. Control dishes received LCIS; EGF pretreatment dishes received 10 μg/mL unlabeled EGF in LCIS. Cells were incubated at 37° C. for 30 minutes. Cells were then cooled to 4° C. on ice for 10 minutes. Compound (24)-labeled EGF was added to the dishes 1:10 at 5 μg/mL from a 50 μg/mL stock in LCIS. These dishes were incubated on ice for 30 minutes, then washed 2× with cold LCIS and allowed to warm to 37° C. for 60 minutes before imaging with standard TRITC and FITC filter sets on a DeltaVision Core microscope. […] All images were matched for gain and exposure times.

B1: Compound (24)-labeled EGF: epithelial growth factor (EGF) conjugated to Compound (24) STP ester, degree of substitution 1 (conjugate, UniProt P01133 23-1207, looked up)
Pro-epidermal growth factor: PQHWSCPEGTLAGNGNSTCVGPAPFLIFSHGNSIFRIDTEGTNYEQLVVDAGVSVIMDFHYNEKRIYWVDLERQLLQRVFLNGSRQERVCNIEKNVSGMAINWINEEVIWSNQQEGIITVTDMKGNNSHILLSALKYPANVAVDPVERFIFWSSEVAGSLYRADLDGVGVKALLETSEKITAVSLDVLDKRLFWIQYNREGSNSLICSCDYDGGSVHISKHPTQHNLFAMSLFGDRIFYSTWKMKTIWIANKHTGKDMVRINLHSSFVPLGELKVVHPLAQPKAEDDTWEPEQKLCKLRKGNCSSTVCGQDLQSHLCMCAEGYALSRDRKYCEDVNECAFWNHGCTLGCKNTPGSYYCTCPVGFVLLPDGKRCHQLVSCPRNVSECSHDCVLTSEGPLCFCPEGSVLERDGKTCSGCSSPDNGGCSQLCVPLSPVSWECDCFPGYDLQLDEKSCAASGPQPFLLFANSQDIRHMHFDGTDYGTLLSQQMGMVYALDHDPVENKIYFAHTALKWIERANMDGSQRERLIEEGVDVPEGLAVDWIGRRFYWTDRGKSLIGRSDLNGKRSKIITKENISQPRGIAVHPMAKRLFWTDTGINPRIESSSLQGLGRLVIASSDLIWPSGITIDFLTDKLYWCDAKQSVIEMANLDGSKRRRLTQNDVGHPFAVAVFEDYVWFSDWAMPSVMRVNKRTGKDRVRLQGSMLKPSSLVVVHPLAKPGADPCLYQNGGCEHICKKRLGTAWCSCREGFMKASDGKTCLALDGHQLLAGGEVDLKNQVTPLDILSKTRVSEDNITESQHMLVAEIMVSDQDDCAPVGCSMYARCISEGEDATCQCLKGFAGDGKLCSDIDECEMGVPVCPPASSKCINTEGGYVCRCSEGYQGDGIHCLDIDECQLGEHSCGENASCTNTEGGYTCMCAGRLSEPGLICPDSTPPPHLREDDHHYSVRNSDSECPLSHDGYCLHDGVCMYIEALDKYACNCVVGYIGERCQYRDLKWWELRHAGHGQQQKVIVVAVCVVVLVMLLLLSLWGAHYYRTQKLLSKNPKNPYEESSRDVRSRRPADTEDGMSSCPQPWFVVIKEHQDLKNGGQPVAGEDGQAADGSMQPTSWRQEPQLCGMGTEQGCWIPVSSDKGSCPQVMERSFHMPSYGTQTLEGGVEKPHSLLSANPLWQQRALDPPHQMELTQ
modifications: Pro-epidermal growth factor Compound (24) dye conjugate
Cells pretreated with 10 μg/mL unlabeled EGF
  fluorescent signal from dye-labeled EGF internalization: no signal
Untreated (control) plates, 5 μg/mL labeled EGF, 60 minutes at 37° C.
  fluorescent signal from dye-labeled EGF internalization: Specific signal
